Measured values from patent US20220143148A1, “COMPOSITIONS AND METHODS FOR MODULATING CGRP SIGNALING TO REGULATE INTESTINAL INNATE LYMPHOID CELLS” (The Broad Institute, Inc., priority 2019, published 2022).

Test system: small intestinal immune cells
Experiment: Droplet-based scRNA-seq of small intestinal immune cells (LP and PP), OVA vs PBS, clustering and differential expression
Assay type: in vivo, mouse
Conditions: for percentage of expressing cells in OVA-treated group / LN (average fold change): cluster ID 12, LP
Text: To comprehensively characterize small intestinal immune cells, Applicants generated scRNA-Seq profiles for 58,067 immune cells collected from lamina propria (LP) and Peyer's patch (PP) regions at steady state and after induction of a type 2 inflammatory reaction to ovalbumin (OVA) (Brandt et al., 2003) (FIGS. 1A and 8A). To ensure sufficient representation of rare cells, Applicants combined a normalization strategy—removing by flow sorting either a portion of IgD+ naïve B cells, which are the most abundant cell type in PPs, or all CD19+ and CD3+ T cells (FIG. 8B, Methods)—with profiling of a sufficiently large number of cells number (P>0.99 to recover at least 15 cells from each cluster, Methods) by massively parallel scRNA-seq (Haber et al., 2017) (Methods). Applicants obtained 36,797 and 21,270 high quality cells passing initial filtering (Methods) from PP and LP regions, respectively.
Overall, Applicants annotated 27 cell subsets across the two compartments, spanning T cells, B cells, ILCs, dendritic cells (DCs), myeloid cells and stromal cells, in frequencies ranging from 0.07% to 14%. Briefly, Applicants first partitioned the cells from the PP regions by unsupervised clustering (Methods) into 46 clusters, retained the 97% of cells that were robustly assigned cell identities in each cluster (Methods), assigned the cells from the LP regions to the 46 clusters using a classifier (Methods), and visualized the data with scvis (Ding et al., 2018), a deep generative model-based method (FIGS. 1B and 8C, Methods). Next, Applicants identified genes that were differentially expressed between the cells in each cluster and the remaining cells (Table 1, Methods), as well as between pairs of clusters (Table 2), to elucidate identities of similar cell types/states. Applicants excluded from downstream analysis clusters mostly consisting of contaminants from epithelium, likely doublets, or cells with a small number of Unique Molecular Identifiers (UMIs) (FIGS. 1C and 8D), or lacking distinct markers (Methods). Altogether, Applicants retained 27 clusters spanning 85% of the cells and each associated with distinct marker genes (FIG. 8E, Methods).
To induce allergic reaction to OVA, 6 to 7 weeks old mice were sensitized twice, two weeks apart, with 50 μg of OVA plus 1 mg of aluminum potassium sulfate adjuvant via intraperitoneal injection. Two weeks later, mice were orally administered with 50 mg of OVA on every other day for a total of five times. 1 μg of α-CGRP peptide was administered simultaneously when indicated. Mice were deprived of food for 3-4 hours in cages with wood chip bedding for limiting antigen degradation in the stomach before each intragastric challenge.
Isolation of cells from Peyer's patches (PPs). Peyer's patches (PPs) were carefully dissected from the small intestine under a stereo microscope using a fine scissor, pierced once with a fine forcep. Tissues were digested in freshly made digestion buffer (RPMI-1640 containing 100 μg/ml Liberase™ and 50 μg/ml DNase I at 37° C. on a roto-mixer. After 15 min, tissues were very gently mixed using a 1 ml pipette. The supernatant was collected and added to ice-cold MACS buffer (pH 7.4; PBS plus 2% FCS and 2 mM EDTA). Pre-warmed (37° C.) fresh digestion buffer was added to the remaining tissues. After rotation at 37° C. for 15 min, the mixture was vigorously mixed using a 1 ml pipette for 1 min. Supernatants from the two steps were combined and passed through 70 μm filters and stained for FACS (below).
Isolation of cells from the lamina propria (LP). The small intestines were opened longitudinally and washed in ice-cold PBS. For scRNA-seq, roughly 0.5 cm of fragments from each of the distal, middle and proximal regions without visible PPs were collected. Epithelial cells were dissociated by tissue rotation in pre-warmed (37° C.) PBS containing 10 mM EDTA at 37° C. for 15 min, followed by additional incubation on ice for 15 min. Tissues were then shaken vigorously. […]

B1: OVA (protein, UniProt P01012 2-386, looked up)
Ovalbumin: GSIGAASMEFCFDVFKELKVHHANENIFYCPIAIMSALAMVYLGAKDSTRTQINKVVRFDKLPGFGDSIEAQCGTSVNVHSSLRDILNQITKPNDVYSFSLASRLYAEERYPILPEYLQCVKELYRGGLEPINFQTAADQARELINSWVESQTNGIIRNVLQPSSVDSQTAMVLVNAIVFKGLWEKAFKDEDTQAMPFRVTEQESKPVQMMYQIGLFRVASMASEKMKILELPFASGTMSMLVLLPDEVSGLEQLESIINFEKLTEWTSSNVMEERKIKVYLPRMKMEEKYNLTSVLMAMGITDVFSSSANLSGISSAESLKISQAVHAAHAEINEAGREVVGSAEAGVDAASVSEEFRADHPFLFCIKHIATNAVLFFGRCVSP
Rilpl2: LN (average fold change) (cluster ID 6, PP, OVA vs PBS): −0.158
Rnase6: LN (average fold change) (cluster ID 6, PP, OVA vs PBS): 0.160
Rnf19b: LN (average fold change) (cluster ID 6, PP, OVA vs PBS): −0.314
Rpn2: LN (average fold change) (cluster ID 6, PP, OVA vs PBS): 0.272
Runx3: LN (average fold change) (cluster ID 6, PP, OVA vs PBS): −0.200
S1pr4: LN (average fold change) (cluster ID 6, PP, OVA vs PBS): 0.331
Sell: LN (average fold change) (cluster ID 6, PP, OVA vs PBS): 0.172
Selplg: LN (average fold change) (cluster ID 6, PP, OVA vs PBS): 0.183
Sf3b1: LN (average fold change) (cluster ID 6, PP, OVA vs PBS): 0.237
Siah2: LN (average fold change) (cluster ID 6, PP, OVA vs PBS): −0.303
Skil: LN (average fold change) (cluster ID 6, PP, OVA vs PBS): −0.246
Sla2: LN (average fold change) (cluster ID 6, PP, OVA vs PBS): 0.243
Smc6: LN (average fold change) (cluster ID 6, PP, OVA vs PBS): −0.180
Socs3: LN (average fold change) (cluster ID 6, PP, OVA vs PBS): 0.385
Spsb2: LN (average fold change) (cluster ID 6, PP, OVA vs PBS): −0.508
Tgif1: LN (average fold change) (cluster ID 6, PP, OVA vs PBS): −0.548
Tnfaip8l2: LN (average fold change) (cluster ID 6, PP, OVA vs PBS): 0.307
Traf4: LN (average fold change) (cluster ID 6, PP, OVA vs PBS): −0.199
Trim25: LN (average fold change) (cluster ID 6, PP, OVA vs PBS): −0.239
VgIl4: LN (average fold change) (cluster ID 6, PP, OVA vs PBS): −0.419
Vps37b: LN (average fold change) (cluster ID 6, PP, OVA vs PBS): −0.292
Wnk1: LN (average fold change) (cluster ID 6, PP, OVA vs PBS): −0.262
Zc3h12a: LN (average fold change) (cluster ID 6, PP, OVA vs PBS): −0.495
Zfand5: LN (average fold change) (cluster ID 6, PP, OVA vs PBS): −0.220
Zfp36l2: LN (average fold change) (cluster ID 6, PP, OVA vs PBS): 0.365
percentage of expressing cells in OVA-treated group (gene Abhd17c): 0.52
LN (average fold change) (gene Abhd17c, OVA vs PBS): 0.599
percentage of expressing cells in OVA-treated group (gene Arf6): 0.429
LN (average fold change) (gene Arf6, OVA vs PBS): 0.610
percentage of expressing cells in OVA-treated group (gene Arl4a): 0.256
LN (average fold change) (gene Arl4a, OVA vs PBS): 0.781
percentage of expressing cells in OVA-treated group (gene Arl5c): 0.04
LN (average fold change) (gene Arl5c, OVA vs PBS): −1.873
percentage of expressing cells in OVA-treated group (gene Arpc2): 0.769
LN (average fold change) (gene Arpc2, OVA vs PBS): 0.318
percentage of expressing cells in OVA-treated group (gene BC031181): 0.365
LN (average fold change) (gene BC031181, OVA vs PBS): −0.512
percentage of expressing cells in OVA-treated group (gene Cbarp): 0.193
LN (average fold change) (gene Cbarp, OVA vs PBS): 0.886
percentage of expressing cells in OVA-treated group (gene Ccl1): 0.203
LN (average fold change) (gene Ccl1, OVA vs PBS): 1.335
percentage of expressing cells in OVA-treated group (gene Ccrl2): 0.192
LN (average fold change) (gene Ccrl2, OVA vs PBS): −0.742
percentage of expressing cells in OVA-treated group (gene Cd52): 0.581
LN (average fold change) (gene Cd52, OVA vs PBS): 0.644
percentage of expressing cells in OVA-treated group (gene Cited2): 0.176
LN (average fold change) (gene Cited2, OVA vs PBS): −0.724
percentage of expressing cells in OVA-treated group (gene Cntnap2): 0.074
LN (average fold change) (gene Cntnap2, OVA vs PBS): −1.008
percentage of expressing cells in OVA-treated group (gene Coq10b): 0.332
LN (average fold change) (gene Coq10b, OVA vs PBS): −0.690
percentage of expressing cells in OVA-treated group (gene Cox8a): 0.798
LN (average fold change) (gene Cox8a, OVA vs PBS): 0.285
percentage of expressing cells in OVA-treated group (gene Cwc25): 0.061
LN (average fold change) (gene Cwc25, OVA vs PBS): −1.439
percentage of expressing cells in OVA-treated group (gene Cycs): 0.531
LN (average fold change) (gene Cycs, OVA vs PBS): 0.561
percentage of expressing cells in OVA-treated group (gene Ddx5): 0.886
LN (average fold change) (gene Ddx5, OVA vs PBS): −0.276
percentage of expressing cells in OVA-treated group (gene Dtx1): 0.05
LN (average fold change) (gene Dtx1, OVA vs PBS): −1.600
percentage of expressing cells in OVA-treated group (gene Eef1a1): 0.997
LN (average fold change) (gene Eef1a1, OVA vs PBS): 0.236
percentage of expressing cells in OVA-treated group (gene Eef1b2): 0.709
LN (average fold change) (gene Eef1b2, OVA vs PBS): 0.395
percentage of expressing cells in OVA-treated group (gene Eef2): 0.927
LN (average fold change) (gene Eef2, OVA vs PBS): 0.240
percentage of expressing cells in OVA-treated group (gene Eif1): 0.996
LN (average fold change) (gene Eif1, OVA vs PBS): 0.152
percentage of expressing cells in OVA-treated group (gene Eif3e): 0.67
LN (average fold change) (gene Eif3e, OVA vs PBS): 0.416
percentage of expressing cells in OVA-treated group (gene Eif3h): 0.686
LN (average fold change) (gene Eif3h, OVA vs PBS): 0.298
percentage of expressing cells in OVA-treated group (gene Emd): 0.235
LN (average fold change) (gene Emd, OVA vs PBS): −0.729
